Assay results published in patent US20160297884A1 (Pfizer, published 2016).

T1: Human BCMA (human, UniProt Q02223 1-54, limits assumed)
T1 construct: also called huBCMA; B-cell maturation antigen
T1 sequence (looked up): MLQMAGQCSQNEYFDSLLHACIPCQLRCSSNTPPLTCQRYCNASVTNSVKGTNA


How the values were obtained:
[1] = biological target: T2, Cynomolgus monkey BCMA (cynomolgus monkey); assay: SPR, IgG immobilised, cyno BCMA analyte
T2 construct: Soluble analyte in SPR; also called cyBCMA; Cyno BCMA
Protocol: (§1) All experiments were performed on a Bio-Rad Proteon XPR36 surface Plasmon resonance biosensor (Bio-Rad, Hercules, Calif.). […] The analysis temperature for the immobilization was 25° C. and the running buffer was HBS-T+(10 mM HEPES, 150 mM NaCl, 0.05% Tween-20, pH 7.4). Channels were activated in the analyte (horizontal) direction by injecting a mixture of 1 mM ECD and 0.25 mM NHS for 3 minutes at a flow rate of 30 μL/min. IgGs were immobilized on the activated spots by injecting them in the ligand (vertical) direction at 20 μg/mL in 10 mM Acetate pH 4.5 buffer for 1.5 minutes at […]. The activated surfaces were blocked by injecting 1M ethanolamine, pH 8.5 in the analyte direction for 3 minutes at 30 μL/min.
(§2) The analysis temperature for the BCMA binding analysis was 37° C. or 25° C. in a running buffer of HBS-T+, supplemented with 1 mg/mL BSA. A kinetic titration method was employed for the interaction analysis as described in Abdiche, et al. Human BCMA (huBCMA) or cynomolgus monkey BCMA (cyBCMA) analyte was injected in the analyte direction using a series of injections from low to high concentration. The concentrations used were 0.08 nM, 0.4 nM, 2 nM, 10 nM and 50 nM (a 5-membered series, with a 5-fold dilution factor and top concentration of 50 nM). The association time for a given analyte dilution was two minutes. Immediately after the 50 nM BCMA injection, dissociation was monitored for 2 hours.
(§3) The sensorgrams were double-referenced and fit to a 1:1 Langmuir with mass transport kinetic titration model in BIAevaluation Software version 4.1.1 (GE Lifesciences, Piscataway, N.J.).

[2] = biological target: T1, Human BCMA; assay: SPR, IgG immobilised, human BCMA analyte
Protocol: as §1, §2, §3

Row | Binder | Kd [1] | koff [1] | kon [1] | Kd [2] | koff [2] | kon [2]
1 | COMBO_Rd4_0.6nM_C14 (antibody, V domains shown, IgG) VH: EVQLLESGGGLVQPGGSLRLSCAASGFTFSSYPMSWVRQAPGKGLEWVSAIGGSGGSLPYADSVKGRFTISRDNSKNTLYLQMNSLRAEDTAVYYCARYWPMDIWGQGTLVTVSS VL: EIVLTQSPGTLSLSPGERATLSCRASQSVSALYLAWYQQKPGQAPRLLMYDASIRATGIPDRFSGSGSGTDFTLTISRLEPEDFAVYYCQQYYGWPLTFGQGTKVEIK | 0.185 nM | 0.000645 s⁻¹ | 3.48e+06 M⁻¹ s⁻¹ | 0.038 nM | 0.000328 s⁻¹ | 8.66e+06 M⁻¹ s⁻¹
2 | COMBO_Rd4_6nM_C02 (antibody, V domains shown, IgG) VH: EVQLLESGGGLVQPGGSLRLSCAASGFTFSSYAMNWVRQAPGKGLEWVSAISDSGGFVYYADSVKGRFTISRDNSKNTLYLQMNSLRAEDTAVYYCARYWPMDSWGQGTLVTVSS VL: EIVLTQSPGTLSLSPGERATLSCRASQSVSSSYLAWYQQKPGQAPRLLMYDASIRATGIPDRFSGSGSGTDFTLTISRLEPEDFAVYYCQQYEFWPLTFGQGTKVEIK | 1.71 nM | 0.00136 s⁻¹ | 795000 M⁻¹ s⁻¹ | 0.422 nM | 0.000443 s⁻¹ | 1.05e+06 M⁻¹ s⁻¹
3 | COMBO_Rd4_6nM_C08 (antibody, V domains shown, IgG) VH: EVQLLESGGGLVQPGGSLRLSCAASGFTFSSYPMSWVRQAPGKGLEWVSAIGGSGTWTYYADSVKGRFTISRDNSKNTLYLQMNSLRAEDTAVYYCARYWPMDSWGQGTLVTVSS VL: EIVLTQSPGTLSLSPGERATLSCRASQSVSSSYLAWYQQKPGQAPRLLMYDASIRATGIPDRFSGSGSGTDFTLTISRLEPEDFAVYYCQQYQKWPLTFGQGTKVEIK | 0.14 nM | 0.000428 s⁻¹ | 3.06e+06 M⁻¹ s⁻¹ | 0.019 nM | 0.000169 s⁻¹ | 8.99e+06 M⁻¹ s⁻¹
4 | COMBO_Rd4_6nM_C09 (antibody, V domains shown, IgG) VH: EVQLLESGGGLVQPGGSLRLSCAASGFTFSSYPMSWVRQAPGKGLEWVSAIFASGGSTYYADSVKGRFTISRDNSKNTLYLQMNSLRAEDTAVYYCARYWPMDSWGQGTLVTVSS VL: EIVLTQSPGTLSLSPGERATLSCRASQSVSAQYLAWYQQKPGQAPRLLMYDASIRATGIPDRFSGSGSGTDFTLTISRLEPEDFAVYYCQQYQAWPLTFGQGTKVEIK | 0.134 nM | 0.000318 s⁻¹ | 2.37e+06 M⁻¹ s⁻¹ | 0.016 nM | 0.000143 s⁻¹ | 8.85e+06 M⁻¹ s⁻¹
5 | COMBO_Rd4_0.6nM_C30 (antibody, V domains shown, IgG) VH: EVQLLESGGGLVQPGGSLRLSCAASGFTFSSYPMSWVRQAPGKGLEWVSAIGGSGGSTYYADSVKGRFTISRDNSKNTLYLQMNSLRAEDTAVYYCARYWPMDSWGQGTLVTVSS VL: EIVLTQSPGTLSLSPGERATLSCRASQSVSYMYLAWYQQKPGQAPRLLIYDASIRATGIPDRFSGSGSGTDFTLTISRLEPEDFAVYYCQQYKSWPLTFGQGTKVEIK | 0.481 nM | 0.000808 s⁻¹ | 1.68e+06 M⁻¹ s⁻¹ | 0.065 nM | 0.000282 s⁻¹ | 4.35e+06 M⁻¹ s⁻¹
6 | COMBO_Rd4_6nM_C07 (antibody, V domains shown, IgG) VH: EVQLLESGGGLVQPGGSLRLSCAASGFTFSSYPMSWVRQAPGKGLEWVSAIGGSGGSLPYADSVKGRFTISRDNSKNTLYLQMNSLRAEDTAVYYCARYWPMADWGQGTLVTVSS VL: EIVLTQSPGTLSLSPGERATLSCRASQPISSSYLAWYQQKPGQAPRLLMYDASIRATGIPDRFSGSGSGTDFTLTISRLEPEDFAVYYCQQYQGWPLTFGQGTKVEIK | 0.237 nM | 0.000934 s⁻¹ | 3.94e+06 M⁻¹ s⁻¹ | 0.035 nM | 0.000371 s⁻¹ | 1.05e+07 M⁻¹ s⁻¹
7 | COMBO_Rd4_0.6nM_C20 (antibody, V domains shown, IgG) VH: EVQLLESGGGLVQPGGSLRLSCAASGFTFSSYPMSWVRQAPGKGLEWVSAIGGSGGSLPYADSVKGRFTISRDNSKNTLYLQMNSLRAEDTAVYYCARYWPMDSWGQGTLVTVSS VL: EIVLTQSPGTLSLSPGERATLSCRASQSVSYLYLAWYQQKPGQAPRLLMYDASIRATGIPDRFSGSGSGTDFTLTISRLEPEDFAVYYCQQYMEWPLTFGQGTKVEIK | 0.092 nM | 0.000284 s⁻¹ | 3.09e+06 M⁻¹ s⁻¹ | 0.019 nM | 0.000146 s⁻¹ | 7.65e+06 M⁻¹ s⁻¹
8 | COMBO_Rd4_6nM_C10 (antibody, V domains shown, IgG) VH: EVQLLESGGGLVQPGGSLRLSCAASGFTFSSYPMSWVRQAPGKGLEWVSAIGGSGGSIHYADSVKGRFTISRDNSKNTLYLQMNSLRAEDTAVYYCARYWPMDSWGQGTLVTVSS VL: EIVLTQSPGTLSLSPGERATLSCRASQSVSSSYWGWYQQKPGQAPRLLMYDASIRATGIPDRFSGSGSGTDFTLTISRLEPEDFAVYYCQQYQCWPLTFGQGTKVEIK | 0.105 nM | 0.00016 s⁻¹ | 1.52e+06 M⁻¹ s⁻¹ | 0.018 nM | 9.72e-05 s⁻¹ | 5.47e+06 M⁻¹ s⁻¹
9 | COMBO_Rd4_6nM_C11 (antibody, V domains shown, IgG) VH: EVQLLESGGGLVQPGGSLRLSCAASGFTFSSYPMSWVRQAPGKGLEWVSAIGGSGGSLGYADSVKGRFTISRDNSKNTLYLQMNSLRAEDTAVYYCARYWPMDSWGQGTLVTVSS VL: EIVLTQSPGTLSLSPGERATLSCRASQSVSPLYLAWYQQKPGQAPRLLMYDASIRATGIPDRFSGSGSGTDFTLTISRLEPEDFAVYYCQQYKAWPLTFGQGTKVEIK | 0.156 nM | 0.000412 s⁻¹ | 2.64e+06 M⁻¹ s⁻¹ | 0.018 nM | 0.000124 s⁻¹ | 6.74e+06 M⁻¹ s⁻¹
10 | COMBO_Rd4_0.6nM_C29 (antibody, V domains shown, IgG) VH: EVQLLESGGGLVQPGGSLRLSCAASGFTFSSYPMSWVRQAPGKGLEWVSAIGGSGGSLPYADSVKGRFTISRDNSKNTLYLQMNSLRAEDTAVYYCARYWPMDIWGQGTLVTVSS VL: EIVLTQSPGTLSLSPGERATLSCRASQSVSSSYLAWYQQKPGQAPRLLMYDASIRATGIPDRFSGSGSGTDFTLTISRLEPEDFAVYYCQQYQSWPLTFGQGTKVEIK | 0.084 nM | 0.000336 s⁻¹ | 4e+06 M⁻¹ s⁻¹ | 0.019 nM | 0.000277 s⁻¹ | 1.47e+07 M⁻¹ s⁻¹
11 | COMBO_Rd4_0.6nM_C23 (antibody, V domains shown, IgG) VH: EVQLLESGGGLVQPGGSLRLSCAASGFTFSSYPMSWVRQAPGKGLEWVSALFGSGGSTYYADSVKGRFTISRDNSKNTLYLQMNSLRAEDTAVYYCARYWPMDSWGQGTLVTVSS VL: EIVLTQSPGTLSLSPGERATLSCRPRQSVSSSYLAWYQQKPGQAPRLLMYDASIRATGIPDRFSGSGSGTDFTLTISRLEPEDFAVYYCQQYQDWPLTFGQGTKVEIK | 0.189 nM | 0.000531 s⁻¹ | 2.81e+06 M⁻¹ s⁻¹ | 0.028 nM | 0.00021 s⁻¹ | 7.39e+06 M⁻¹ s⁻¹
12 | COMBO_Rd4_0.6nM_C17 (antibody, V domains shown, IgG) VH: EVQLLESGGGLVQPGGSLRLSCAASGFTFSSYPMSWVRQAPGKGLEWVSAIGGSGGSLPYADSVKGRFTISRDNSKNTLYLQMNSLRAEDTAVYYCARYWPMDIWGQGTLVTVSS VL: EIVLTQSPGTLSLSPGERATLSCRASQGISSTYLAWYQQKPGQAPRLLMYDASIRATGIPDRFSGSGSGTDFTLTISRLEPEDFAVYYCQQYAYWPLTFGQGTKVEIK | 0.33 nM | 0.00101 s⁻¹ | 3.06e+06 M⁻¹ s⁻¹ | 0.092 nM | 0.000801 s⁻¹ | 8.68e+06 M⁻¹ s⁻¹
13 | COMBO_Rd4_6nM_C21 (antibody, V domains shown, IgG) VH: EVQLLESGGGLVQPGGSLRLSCAASGFTFSSYPMSWVRQAPGKGLEWVSAIGGSGGSLPYADSVKGRFTISRDNSKNTLYLQMNSLRAEDTAVYYCARYWPMDSWGQGTLVTVSS VL: EIVLTQSPGTLSLSPGERATLSCRASQSVSAAYLAWYQQKPGQAPRLLMYDASIRATGIPDRFSGSGSGTDFTLTISRLEPEDFAVYYCQQYMCWPLTFGQGTKVEIK | 0.078 nM | 0.000248 s⁻¹ | 3.17e+06 M⁻¹ s⁻¹ | 0.006 nM | 7.34e-05 s⁻¹ | 1.17e+07 M⁻¹ s⁻¹
